From paper PMC10850970, “Characterization of N-glycosylation and its functional role in SIDT1-Mediated RNA uptake” come the findings set out here.

The nature of series [1]: Amplex Red phospholipase assay. The note with it: glycan lost; control: untreated full-length SIDT1.
Series [2] can be described thus: precipitation after deglycosylation. The note with it: glycan lost; control: untreated purified SIDT1ECD.
Series [3] can be described thus: Western blot of cells and medium, HEK293F. To be noted: glycan lost; control: WT SIDT1ECD. In general terms: A western blot detects proteins with antibodies after separation by electrophoresis.
Series [4] can be described thus: differential scanning fluorometry (Tycho). The note with it: glycan changed form; control: SIDT1ECD expressed without kifunensine, same pH.
A short description of series [5]: 0-4 h incubation at pH 3.5, SDS-PAGE. The note with it: glycan changed form; control: SIDT1ECD expressed without kifunensine.
The next series has as its target T1, SIDT1 ECD-Fc (Homo sapiens, UniProt Q9NXL6 23-310).
T1 sequence: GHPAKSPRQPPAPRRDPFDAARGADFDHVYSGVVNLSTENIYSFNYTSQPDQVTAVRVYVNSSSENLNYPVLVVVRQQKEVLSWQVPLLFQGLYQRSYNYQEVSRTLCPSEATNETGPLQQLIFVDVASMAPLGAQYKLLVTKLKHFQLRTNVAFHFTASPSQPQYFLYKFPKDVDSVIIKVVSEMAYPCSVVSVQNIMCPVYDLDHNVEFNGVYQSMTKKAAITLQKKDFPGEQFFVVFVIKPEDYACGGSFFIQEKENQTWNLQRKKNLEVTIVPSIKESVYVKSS
Kind of series: EMSA; pH 5.5; legend says FAM-labeled RNA; EMSA: 40 mM Tris-acetate pH 5.5, 100 mM NaCl, 2.5 mM EDTA, 5% glycerol, RT 30 min, 2.5 uM RNA; MST: 25 mM MES pH 5.5, 100 mM NaCl, 0.05% Tween-20, 25 C, 5 nM labeled protein. The note with it: protein: recombinant; tags: C-terminal Fc; chain copies: 2; label: 5'-FAM; single strand. (In general: A gel shift assay detects complexes by their altered migration in electrophoresis.)

The next series addresses T2, SIDT1 ECD (Homo sapiens, UniProt Q9NXL6 23-310).
T2 sequence: T1 sequence
The experiment in a line: EMSA; pH 5.5; EMSA: 40 mM Tris-acetate pH 5.5, 100 mM NaCl, 2.5 mM EDTA, 5% glycerol, RT 30 min, 2.5 uM RNA; MST: 25 mM MES pH 5.5, 100 mM NaCl, 0.05% Tween-20, 25 C, 5 nM labeled protein. To be noted: protein: recombinant; C-terminal 6xHis; label: 5'-FAM; single strand.

B1: SIDT1: PNGase F (protein)
parent chain: MRGCLRLALLCALPWLLLAASPGHPAKSPRQPPAPRRDPFDAARGADFDHVYSGVVNLSTENIYSFNYTSQPDQVTAVRVYVNSSSENLNYPVLVVVRQQKEVLSWQVPLLFQGLYQRSYNYQEVSRTLCPSEATNETGPLQQLIFVDVASMAPLGAQYKLLVTKLKHFQLRTNVAFHFTASPSQPQYFLYKFPKDVDSVIIKVVSEMAYPCSVVSVQNIMCPVYDLDHNVEFNGVYQSMTKKAAITLQKKDFPGEQFFVVFVIKPEDYACGGSFFIQEKENQTWNLQRKKNLEVTIVPSIKESVYVKSSLFSVFIFLSFYLGCLLVGFVHYLRFQRKSIDGSFGSNDGSGNMVASHPIAASTPEGSNYGTIDESSSSPGRQMSSSDGGPPGQSDTDSSVEESDFDTMPDIESDKNIIRTKMFLYLSDLSRKDRRIVSKKYKIYFWNIITIAVFYALPVIQLVITYQTVVNVTGNQDICYYNFLCAHPLGVLSAFNNILSNLGHVLLGFLFLLIVLRRDILHRRALEAKDIFAVEYGIPKHFGLFYAMGIALMMEGVLSACYHVCPNYSNFQFDTSFMYMIAGLCMLKLYQTRHPDINASAYSAYASFAVVIMVTVLGVVFGKNDVWFWVIFSAIHVLASLALSTQIYYMGRFKIDLGIFRRAAMVFYTDCIQQCSRPLYMDRMVLLVVGNLVNWSFALFGLIYRPRDFASYMLGIFICNLLLYLAFYIIMKLRSSEKVLPVPLFCIVATAVMWAAALYFFFQNLSSWEGTPAESREKNRECILLDFFDDHDIWHFLSATALFFSFLVLLTLDDDLDVVRRDQIPVF
For B1, the enzymatic_activity result in series [1] is listed as “no change”. For the same molecule, the stability_or_folding entry in series [2] was “decreases”.

B2: SIDT1: N83Q (protein)
parent chain: B1 parent chain
Turning to B2, in series [3], the expression_or_secretion result is “no change”.

B3: SIDT1: kifunensine, pH 5.5 (protein)
parent chain: B1 parent chain
For the molecule B3, the “stability_or_folding, Tm” value in series [4] was “decreases, decrease of 1.7 vs 55.1 (pH 7.5), 60.5 (pH 5.5), 61.1 (pH 3.5)”.

B4: SIDT1: SIDT1ECD mutant (all N to Q) (protein)
parent chain: B1 parent chain
As to B4, in series [3], the expression_or_secretion result is reported as “decreases”.

B5: SIDT1: N136Q (protein)
parent chain: B1 parent chain
In the case of B5, in series [3], the expression_or_secretion entry was “decreases”.

B6: SIDT1: N282Q (protein)
parent chain: B1 parent chain
In the case of B6, in series [3], the expression_or_secretion result is reported as “no change”.

B7: SIDT1: N67Q (protein)
parent chain: B1 parent chain
On to B7, for which, in series [3], the expression_or_secretion entry is given as “decreases”.

B8: SIDT1: N57Q (protein)
parent chain: B1 parent chain
Turning to B8, the expression_or_secretion entry in series [3] is recorded as “decreases”.

B9: SIDT1: kifunensine (protein)
parent chain: B1 parent chain
Turning to B9, in series [5], the degradation_or_half_life entry is “increases”.

B10: SIDT1: kifunensine, pH 7.5 (protein)
parent chain: B1 parent chain
In the case of B10, the “stability_or_folding, Tm” value in series [4] was “decreases, decrease of 4.7 vs 55.1 (pH 7.5), 60.5 (pH 5.5), 61.1 (pH 3.5)”.

B11: SIDT1: kifunensine, pH 3.5 (protein)
parent chain: B1 parent chain
Take B11: in series [4], the “stability_or_folding, Tm” value is recorded as “decreases, decrease of 5.4 vs 55.1 (pH 7.5), 60.5 (pH 5.5), 61.1 (pH 3.5)”.

UCGCUUGGUGCAGAUCGGGAC (ssRNA) [FAM-ssRNA 21 nt]: the binding result in the series with SIDT1 ECD-Fc and with SIDT1 ECD was “binds” in each case.
